Data taken from patent publication US20130281922A1 (KANCERA, published 2013).

Molecular target: T1, human ROR1 on cells (human, UniProt Q01973 30-937)
T1 construct: whole, on cells
Test: Scatchard plot of 125I-labelled 009-G03 binding to RPMI-8226 cells, 2.5 h on ice
Procedure: Antibody was labelled with ¹²⁵I using free Iodine and test tubes pre-coated with the oxidant reagent Iodogen (1,3,4,6-tetrachloro-3α,6α-diphenylglycoluri, Thermo scientific), according to manufactures instruction. Briefly 200 μg of antibody was labeled for 10 minutes in PBS and free iodine were removed using a small disposable desalting columns (NAP 5, GE Healthcare Life science). […] 0.5×10⁶ cells were incubated for 2.5 h on ice with different concentrations of ¹²⁵I-labelled 009-G03 antibody. Free nonbinding antibody (F) was separated from cell bound antibody (B) by centrifugation through a 40% Ficoll-cushion and samples were analysed in a gamma counter (FIG. 29).

T1 sequence (Q01973 30-937): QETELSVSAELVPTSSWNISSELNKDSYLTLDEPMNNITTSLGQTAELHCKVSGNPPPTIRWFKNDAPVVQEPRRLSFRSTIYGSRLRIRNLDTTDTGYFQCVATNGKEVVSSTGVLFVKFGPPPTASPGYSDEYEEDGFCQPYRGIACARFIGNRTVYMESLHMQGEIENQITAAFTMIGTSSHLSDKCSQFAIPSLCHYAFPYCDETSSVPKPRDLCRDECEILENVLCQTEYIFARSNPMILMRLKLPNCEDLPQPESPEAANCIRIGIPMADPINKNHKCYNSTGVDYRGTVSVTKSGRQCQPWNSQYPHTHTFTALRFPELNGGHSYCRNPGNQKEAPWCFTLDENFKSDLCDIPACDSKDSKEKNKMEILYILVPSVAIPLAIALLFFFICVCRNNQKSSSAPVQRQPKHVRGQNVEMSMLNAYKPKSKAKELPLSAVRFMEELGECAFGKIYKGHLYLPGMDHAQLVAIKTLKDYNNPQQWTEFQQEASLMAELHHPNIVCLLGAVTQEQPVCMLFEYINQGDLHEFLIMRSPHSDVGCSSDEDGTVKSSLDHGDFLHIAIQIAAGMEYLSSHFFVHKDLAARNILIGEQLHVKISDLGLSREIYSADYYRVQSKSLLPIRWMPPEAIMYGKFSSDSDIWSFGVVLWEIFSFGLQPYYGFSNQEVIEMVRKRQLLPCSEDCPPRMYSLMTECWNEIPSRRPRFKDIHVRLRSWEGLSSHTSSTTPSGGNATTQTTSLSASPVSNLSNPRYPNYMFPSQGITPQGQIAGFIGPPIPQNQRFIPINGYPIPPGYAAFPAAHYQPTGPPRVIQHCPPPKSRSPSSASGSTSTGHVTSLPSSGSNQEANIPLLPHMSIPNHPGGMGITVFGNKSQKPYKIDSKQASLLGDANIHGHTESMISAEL

B1: ROR1-009-G03 (antibody, V domains shown)
VH: EVQLLESGGGLVQPGGSLRLSCAASGFTFSDYYMSWIRQAPGKGLEWVSAISGSGGSTYYADSVKGRFTISRDNSKNTLYLQMNSLRAEDTAVYYCAKEDWEGASFDYWGQGTLVTVSS
VL: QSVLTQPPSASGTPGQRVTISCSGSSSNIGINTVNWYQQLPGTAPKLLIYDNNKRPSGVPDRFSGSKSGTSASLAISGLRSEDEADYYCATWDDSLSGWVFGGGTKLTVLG
notes: also called ROR 009 G03; ROR1 specific mAb 009-G03
With B1 the Kd was 1 nM.
